Like-named read-outs stand apart in the source and are kept apart here. Values belong to the binder of their own block, whether it stands above or below them.
Tests used:
[1] = target: T1, human PSMA on cells (LNCaP) (human, UniProt Q04609 1-750); assay: flow cytometry, mammalian Fab supernatant on LNCaP cells, anti-human kappa-RPE
T1 construct: whole, on cells; also called LNCaP cells
Description: (§1) Individual Fab clones were isolated from the round 3 output of all panning experiments following pIX excision. Fab clones were tested for binding to chimp and cyno PSMA expressing HEK cells, as well as to human PSMA on LNCaP cells. Briefly, PSMA expressing cells were aliquoted into a V-bottom plate (CoStar 3357) at a density of 200,000 per well and incubated with (100 μl) supernatants expressing Fab fragments for 1 hour on ice. Cells were washed twice with PBS containing 2% FBS, and stained with a mouse anti-human kappa-RPE antibody (Life Technologies cat #MH10514) for 1 hour on ice. Cells were washed twice with PBS containing 2% FBS and resuspended in […] of the same wash buffer. Plates were read on a BD FACS Array flow cytometer. FACS data was analyzed in FlowJo software by live gating the healthy population of cells using forward scatter and side scatter, and then analyzing the cells within this gate for PE staining. Mean fluorescence intensity (MFI) was calculated and exported into Microsoft Excel. […] Fabs were sequenced and moved forward for cloning into mammalian expression vector for rescreening. True positives were selected from the binding of mammalian cell expressed Fab supernatants to PSMA-expressing cell lines.
FIGS. 22A, 22B, 22C and 22D show the titration curves for anti-PSMA panning hits vs. LNCaP cells. […] Binding profiles among hits were compared across cell lines expressing different species of PSMA.

[2] = target: T2, cynomolgus monkey PSMA on HEK cells (cynomolgus); assay: flow cytometry, mammalian Fab supernatant on cyno-PSMA HEK cells (PSMG5), anti-human kappa-RPE
T2 construct: whole, on cells; also called Cyno-PSMA HEK; PSMG5
Excerpt: (§2) (Mammalian Fab Supernatant Titration Curves for Anti-PSMA Phage Panning Hits vs Cyno PSMA HEK). […] In FIG. 24D, Mammalian-expressed supernatants were normalized for Fab expression via octet, and titrated against either human LNCAP, PSMG5 (Cyno-PSMA HEK), or PSMG9 (chimp-PSMA HEK) cells using flow cytometry. Geometric mean fluorescence intensity (GeoMFI) was plotted vs. Fab concertation using GraphPad Prizm.
(§3) A cell-based binding assay was designed to assess the binding capabilities of individual Fab-his fusions from E. coli supernatants to PSMA-expressing cells. Individual Fab clones were isolated from the round 3 output of all panning experiments following pIX excision. Fab clones were tested for binding to chimp and cyno PSMA expressing HEK cells, as well as to human PSMA on LNCaP cells. Briefly, PSMA expressing cells were aliquoted into a V-bottom plate (CoStar 3357) at a density of 200,000 per well and incubated with (100 μl) supernatants expressing Fab fragments for 1 hour on ice. […] Plates were read on a BD FACS Array flow cytometer. FACS data was analyzed in FlowJo software by live gating the healthy population of cells using forward scatter and side scatter, and then analyzing the cells within this gate for PE staining. Mean fluorescence intensity (MFI) was calculated and exported into Microsoft Excel. […]

[3] = target: T3, chimpanzee PSMA on HEK cells (chimpanzee, UniProt H2Q3K5 1-750); assay: flow cytometry, mammalian Fab supernatant on chimp-PSMA HEK cells (PSMG9), anti-human kappa-RPE
T3 construct: also called chimp-PSMA HEK; PSMG9
T3 sequence (H2Q3K5 entry or part of it limits assumed): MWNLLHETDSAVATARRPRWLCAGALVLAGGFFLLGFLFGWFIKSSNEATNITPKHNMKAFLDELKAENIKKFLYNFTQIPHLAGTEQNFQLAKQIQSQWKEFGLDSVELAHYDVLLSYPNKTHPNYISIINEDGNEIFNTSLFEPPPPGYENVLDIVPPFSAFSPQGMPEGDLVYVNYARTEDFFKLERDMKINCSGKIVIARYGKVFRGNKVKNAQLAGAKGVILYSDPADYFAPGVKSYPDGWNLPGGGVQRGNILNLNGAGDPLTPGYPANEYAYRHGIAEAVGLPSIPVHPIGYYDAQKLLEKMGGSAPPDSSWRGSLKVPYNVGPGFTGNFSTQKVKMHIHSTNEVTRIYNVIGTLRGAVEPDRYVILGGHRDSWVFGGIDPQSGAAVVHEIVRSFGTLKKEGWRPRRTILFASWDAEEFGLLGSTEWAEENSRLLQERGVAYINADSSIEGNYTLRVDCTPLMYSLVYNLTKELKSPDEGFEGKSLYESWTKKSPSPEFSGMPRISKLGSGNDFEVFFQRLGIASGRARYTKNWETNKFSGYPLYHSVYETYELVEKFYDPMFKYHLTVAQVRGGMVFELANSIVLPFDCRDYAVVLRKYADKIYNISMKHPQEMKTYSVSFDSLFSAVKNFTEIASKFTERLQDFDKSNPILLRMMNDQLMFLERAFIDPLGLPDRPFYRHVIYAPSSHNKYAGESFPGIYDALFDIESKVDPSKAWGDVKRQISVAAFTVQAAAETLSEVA
Description: as §1
(§4) FIGS. 22A, 22B, 22C and 22D show the titration curves for anti-PSMA panning hits vs. LNCaP cells. […]

[4] = target: T3, chimpanzee PSMA on HEK cells; assay: as above; remark: listed apart in the source
Description: as §1, §4

[5] = target: T2, cynomolgus monkey PSMA on HEK cells; assay: flow cytometry, mammalian Fab supernatant on cyno-PSMA HEK cells (PSMG5), anti-human kappa-RPE; remark: listed apart in the source
Excerpt: as §2, §3

Human CD33-C2-HSA = target: T4, Human CD33-C2-HSA (human); assay: SPRi off-rate screen (IBIS MX96)
T4 construct: C2 domain of human CD33 fused to HSA; also called C33W4; huCD33-C2-HSA

Human CD33 ECD-HSA = target: T5, Human CD33 ECD-HSA (human); assay: SPRi off-rate screen (IBIS MX96)
T5 construct: CD33 ECD fused at the C-terminus to monomeric HSA (C58S) and a six-histidine tag; also called C33W2; huCD33 ECD-HSA

Cyno CD33 full length = Cyno CD33 full length (cynomolgus monkey); assay: cell-based or functional assay
Cyno CD3e = Cyno CD3e (cynomolgus monkey, UniProt Q95LI5 22-198); assay: cell-based or functional assay
Chain of Cyno CD3e (Q95LI5 22-198): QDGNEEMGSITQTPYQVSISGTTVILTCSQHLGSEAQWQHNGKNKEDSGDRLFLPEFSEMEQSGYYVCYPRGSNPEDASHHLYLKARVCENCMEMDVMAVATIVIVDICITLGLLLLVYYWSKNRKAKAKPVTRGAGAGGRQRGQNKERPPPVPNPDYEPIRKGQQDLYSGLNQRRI

Human CD33 full length [6] = target: T6, Human CD33 full length (human, UniProt P20138 18-364); assay: cell-based or functional assay
T6 sequence (P20138 18-364 limits assumed): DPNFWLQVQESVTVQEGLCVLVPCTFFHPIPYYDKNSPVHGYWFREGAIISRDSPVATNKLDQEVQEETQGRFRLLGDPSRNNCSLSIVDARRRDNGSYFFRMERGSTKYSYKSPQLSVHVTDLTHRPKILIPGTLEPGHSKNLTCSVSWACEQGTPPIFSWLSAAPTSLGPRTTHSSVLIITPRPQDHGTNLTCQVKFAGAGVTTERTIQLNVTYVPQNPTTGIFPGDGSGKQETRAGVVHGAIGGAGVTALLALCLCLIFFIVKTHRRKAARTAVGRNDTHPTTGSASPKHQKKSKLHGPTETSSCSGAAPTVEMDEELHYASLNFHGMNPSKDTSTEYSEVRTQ

Human CD33 full length [7] = target: T6, Human CD33 full length; assay: cell-based or functional assay; remark: listed apart in the source
[8] = target: T7, human CD3 on human T cells (human, UniProt P07766 23-207); assay: Kd = IC50/(1+[T]/KdT) from competition with AF488 SP-34 on human pan T cells
T7 construct: Native TCR-CD3 complex on cells; also called primary human T cells; human pan T cells
T7 sequence (P07766 23-207 limits assumed): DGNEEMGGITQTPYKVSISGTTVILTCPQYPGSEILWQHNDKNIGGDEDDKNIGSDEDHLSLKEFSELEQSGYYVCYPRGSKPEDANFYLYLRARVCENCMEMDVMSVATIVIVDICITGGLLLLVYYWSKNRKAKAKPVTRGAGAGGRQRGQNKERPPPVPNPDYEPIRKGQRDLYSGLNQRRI
Description: (§5) The mixture was added to the T cells for 2 hours at 4° C. Cells were then washed to remove un-bound antibody, fixed for 15 minutes, washed, and re-suspended in FACS Staining buffer containing 1 mM EDTA.
(§6) The iQue Intellicyte Flow Cytometer was used to measure binding. Cells were gated for T-cell population, followed by cell singlets, followed by Live Cells (FL4). Geometric mean of staining (FL1) was determined for each well. The acquired mean fluorescence intensity values were plotted as a function of the log antibody molecule concentration (converted to nM) and analyzed using Prism software in a sigmoidal dose-response (variable slope) from which the EC50/IC50 values (in nM) are derived. The binding affinity (Kd) was derived using the following formula: Kd=IC50/(1+([T]/KdT)).

[9] = target: T7, human CD3 on human T cells; assay: competition with AF488 SP-34 tracer on human pan T cells, flow cytometry
Description: as §5, §6

Rh-integrin a4b7 = target: T8, Rh-integrin a4b7 (UniProt P13612 34-977; P26010 20-723, limits assumed); assay: Biacore 8K SPR, antibody over immobilised protein
T8 construct: rh read as recombinant human
Description: (§7) Non-specific binding of the lead molecule to unrelated surfaces is determined by biosensor technology (Biacore 8K). Antibody is passed over SPR surfaces coated with unrelated proteins. […] Irrelevant surfaces include negatively charged protein (Soy Trypsin Inhibitor), positively charged protein (Lysozyme and β-defensin), hydrophobic (Rh-integrin a4b7), human IgG, sticky protein (Rh-CD19). Proper controls are used in this experiment. Lead is flown over two surfaces, one is a blank and the other has a molecule directly immobilized. The response unit (RU) level is determined by subtracting the blank RU from the test surface RU. […] A response unit ≥100 predicts high risks for non-specific binding to charged/hydrophobic/IgG surfaces which would create challenges during manufacturing and translate to poor PK properties.

Rh-CD19 = target: T9, Rh-CD19 (UniProt P15391 20-291, limits assumed); assay: Biacore 8K SPR, antibody over immobilised protein
T9 construct: rh read as recombinant human
T9 sequence (looked up): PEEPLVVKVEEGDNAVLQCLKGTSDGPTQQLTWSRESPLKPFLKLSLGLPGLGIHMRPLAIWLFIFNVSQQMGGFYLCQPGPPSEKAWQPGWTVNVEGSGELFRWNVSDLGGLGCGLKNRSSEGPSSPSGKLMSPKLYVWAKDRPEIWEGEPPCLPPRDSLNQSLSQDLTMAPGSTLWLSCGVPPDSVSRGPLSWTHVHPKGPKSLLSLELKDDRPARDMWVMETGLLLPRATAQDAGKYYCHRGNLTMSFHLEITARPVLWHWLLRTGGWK
Description: as §7

T1 sequence (Q04609 whole entry): as the sequence (H2Q3K5 entry or part of it limits assumed) above, with L155S, H281R, Y475H, N613S, T647S, L660V, D727E, S733Y counted along it

- binding result [1]: binds
- EC50 (read off the curve) [4]: ~0.3 µg/mL
B2: PSMM18 (Fab, V domains shown)
VH: EVQLVQSGAEVKKPGESLKISCKGSGYSFTSYWIGWVRQMPGKGLEWMGIIYPGDSDTRYSPSFQGQVTISADKSISTAYLQWSSLKASDTAMYYCARAYHYSKGLDYWGQGTLVTVSS
VL: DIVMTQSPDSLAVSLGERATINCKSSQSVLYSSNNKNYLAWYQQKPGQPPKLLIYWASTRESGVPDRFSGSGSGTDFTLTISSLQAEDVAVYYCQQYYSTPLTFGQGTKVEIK
notes: Mammalian Fab supernatant; also called PSMB18

- EC50 (read off the curve) [2]: ~0.2 µg/mL
B3: PSMM59 (Fab, V domains shown)
VH: EVQLVQSGAEVKKPGESLKISCKGSGYSFTSYWISWVRQMPGKGLEWMGIIYPGDSYTRYSPSFQGQVTISADKSISTAYLQWSSLKASDTAMYYCARDYEWELFDSRLDYWGQGTLVTVSS
VL: not shown
notes: Mammalian Fab supernatant; also called PSMB58

- EC50 (read off the curve) [1]: ~0.2 µg/mL
- EC50 (read off the curve) [3]: ~0.4 µg/mL
B4: PSMM87 (Fab, V domains shown)
VH: QVQLVQSGAEVKKPGSSVKVSCKASGGTFKSYDISWVRQAPGQGLEWMGGIIPIEGTANYAQKFQGRVTITADESTSTAYMELSSLRSEDTAVYYCARDYPAGYGFDYWGQGTLVTVSS
VL: not shown
notes: Mammalian Fab supernatant; also called PSMB86

- EC50 (read off the curve) [5]: ~0.4 µg/mL
B6: PSMM85 (Fab, V domains shown)
VH: EVQLLESGGGLVQPGGSLRLSCAASGFTFDSDWMSWVRQAPGKGLEWVSAISGNGGSTEYADSVKGRFTISRDNSKNTLYLQMNSLRAEDTAVYYCARDPYYYYDGDSYYGMDVWGQGTLVTVSS
VL: not shown
notes: Mammalian Fab supernatant; also called PSMB84

The remaining lines, values behind:

B1: PSMM52 (Fab, V domains shown)
VH: QVQLVQSGAEVKKPGSSVKVSCKASGGTFSSYAISWVRQAPGQGLEWMGWIIPYNGNANYAQKFQGRVTITADESTSTAYMELSSLRSEDTAVYYCARVNSAALVWERLDYWGQGTLVTVSS
VL: DIQMTQSPSSLSASVGDRVTITCRASQSIDRWLNWYQQKPGKAPKLLIYAASSLQSGVPSRFSGSGSGTDFTLTISSLQPEDFATYYCQQSPRYPLTFGQGTKVEIK
notes: Mammalian Fab supernatant; also called PSMB51
- EC50 (read off the curve) [1]: ~0.3 µg/mL
- EC50 (read off the curve) [2]: ~0.2 µg/mL
- EC50 (read off the curve) [3]: ~0.2 µg/mL
- EC50 (read off the curve) [4]: ~0.2 µg/mL
- EC50 (read off the curve) [5]: ~0.2 µg/mL

B5: C33B778 (antibody, IgG4, V domains shown)
VH: QVQLVESGGGVVQPGRSLRLSCVASGFTFSSYGMHWVRQAPGKGLEWVAVISYDGSNKYYADSVKGRFTISRDNSKNTLYLQMNSLRAEGTAVYYCAKDFRSFDWLPPDSASYHGMDVWGQGTTVTVSS
VL: SYELTQPPSVSVSPGQTASITCSGDKLGDKYACWYQQKPGQSPVLVIYQDGKRPSGIPERFSGSNFGNKATLTISGTQAMDEADYYCQAWDRNTVVFGGGTKLTVL
notes: also called C33H66/C33L60; C33F78
- koff (Human CD33-C2-HSA): 0.00257 s⁻¹
- koff (Human CD33 ECD-HSA): 4.72e-05 s⁻¹

B7: C3CB189 (bispecific antibody, IgG4, V domains shown)
VH 1: EVQLVESGGGLVQPGRSLRLSCAASGFTFDDYAMHWVRQAPGKGLEWVSGIGWSGGSIVYADSVKGRFTISRDNAKNSLYLQMNSLRAEDTALYYCAKDSPYGDFFDYWGQGTLVTVSS
VL 1: DIVMTQSPDSLAVSLGERATINCKSSQTVFYSSNNKNYLAWYQQKPGQPPKLLISWASTRKSGVPDRFSGSGSGTDFTLTVSSLQAEDVAVYYCQHYYSTPYTFGQGTKLEIK
VH 2: QVQLQQSGPRLVRPSQTLSLTCAISGDSVFNNNAAWSWIRQSPSRGLEWLGRTYYRSKWLYDYAVSVKSRITVNPDTSRNQFTLQLNSVTPEDTALYYCARGYSSSFDYWGQGTLVTVSS
VL 2: QSALTQPASVSGSPGQSITISCTGTSSNIGTYKFVSWYQQHPDKAPKVLLYEVSKRPSGVSSRFSGSKSGNTASLTISGLQAEDQADYHCVSYAGSGTLLFGGGTKLTVL
- CD33^+ CD14^+ Killing EC50 (Cyno CD33 full length): 3.6 nM
- T cell activation EC50 (Cyno CD3e): 0.02 nM
- Primary AML Cell Killing EC50 (Human CD33 full length [6]): 0.578 nM
- CD33^+ CD14^+ Killing EC50 (Human CD33 full length [7]): 1.16 nM
- MOLM13 Killing EC50 (Human CD33 full length [7]): 0.168 nM

B8: CD3B376 (antibody, human IgG4 S228P, lambda, F234A L235A, V domains shown)
VH: QVQLQQSGPRLVRPSQTLSLTCAISGDSVFNNNAAWSWIRQSPSRGLEWLGRTYYRSKWLYDYAVSVKSRITVNPDTSRNQFTLQLNSVTPEDTALYYCARGYSSSFDYWGQGTLVTVSS
VL: QSALTQPASVSGSPGQSITISCTGTSSNIGTYKFVSWYQQHPDKAPKVLLYEVSKRPSGVSSRFSGSKSGNTASLTISGLQAEDQADYHCVSYAGSGTLLFGGGTKLTVLG
notes: IgG4 PAA (S228P, F234A, L235A); LC is CD3L124 with C91V; also called CD3H219/CD3L150; bivalent CD3B376
- Kd [8]: 7.3 nM
- IC50 [9]: 29 nM
- binding result (Rh-integrin a4b7): no binding (tested: response unit ≥100 predicts high risks)
- binding result (Rh-CD19): no binding (tested: response unit ≥100 predicts high risks)

B9: CD3B450 (antibody, human IgG4 S228P, lambda, F234A L235A, V domains shown)
VH: QVQLQQSGPGLVKPSQTLSLTCAISGDSVFNNNAAWSWIRQSPSRGLEWLGRTYYRSKWLYDYAVSVKSRITINPDTSKNQFSLQLNSVTPEDTAVYYCARGYSSSFDYWGQGTLVTVSS
VL: QSALTQPASVSGSPGQSITISCTGTSSNIGTYKFVSWYQQHPGKAPKVMIYEVSKRPSGVSNRFSGSKSGNTASLTISGLQAEDEADYYCVSYAGSGTLLFGGGTKLTVLG
notes: IgG4 PAA; also called CD3H231/CD3L197; bivalent CD3B450
- Kd [8]: 15 nM
- IC50 [9]: 60 nM
